B1: FIXa-Y155F/K247N/N249S/N260S/R318Y/R338E/R403E/E410N (protein)
chain 1: not shown
chain 2: not shown
B2: FIXa-Y155F/K247N/N249S/R338E/T343R (protein)
chain 1: not shown
chain 2: not shown
B3: FIXa K228N/R338E/R403E (mature FIX numbering) (protein)
chain 1: not shown
chain 2: not shown
B4: FIXa R318Y/R338E/E410N (mature FIX numbering) (protein)
chain 1: not shown
chain 2: not shown
B5: FIXa-Y155F/K247N/N249S/R318Y/R338E/T343R/E410N (protein)
chain 1: not shown
chain 2: not shown
B6: FIXa-Y155F/K247N/N249S/R318Y/R338E/T343R/R403E/E410N (protein)
chain 1: not shown
chain 2: not shown
B7: FIXa-Y155F/K247N/N249S/R338E/R403E (protein)
chain 1: not shown
chain 2: not shown
B8: FIXa-Y155F/K247N/N249S/R318Y/E410N (protein)
chain 1: not shown
chain 2: not shown
B9: FIXa-R318Y/T343R/R403E/E410N (protein)
chain 1: not shown
chain 2: not shown
B10: FIXa-N260S/R318Y/R338E/T343R/R403E/E410N (protein)
chain 1: not shown
chain 2: not shown
B11: FIXa-Y155F/R338E/T343R/R403E/E410N (protein)
chain 1: not shown
chain 2: not shown
B12: FIXa-Y155F/K247N/N249S/R318Y/R403E (protein)
chain 1: not shown
chain 2: not shown
B13: FIXa-Y155F/K228N/I251S/R318Y/R338E/R403E/E410N (protein)
chain 1: not shown
chain 2: not shown
B14: FIXa-K228N/I251S/R318Y/R338E/R403E/E410N (protein)
chain 1: not shown
chain 2: not shown

What follows are proteins tested against Factor X, P00742.
Factor X, P00742, sequence (P00742 whole entry, looked up): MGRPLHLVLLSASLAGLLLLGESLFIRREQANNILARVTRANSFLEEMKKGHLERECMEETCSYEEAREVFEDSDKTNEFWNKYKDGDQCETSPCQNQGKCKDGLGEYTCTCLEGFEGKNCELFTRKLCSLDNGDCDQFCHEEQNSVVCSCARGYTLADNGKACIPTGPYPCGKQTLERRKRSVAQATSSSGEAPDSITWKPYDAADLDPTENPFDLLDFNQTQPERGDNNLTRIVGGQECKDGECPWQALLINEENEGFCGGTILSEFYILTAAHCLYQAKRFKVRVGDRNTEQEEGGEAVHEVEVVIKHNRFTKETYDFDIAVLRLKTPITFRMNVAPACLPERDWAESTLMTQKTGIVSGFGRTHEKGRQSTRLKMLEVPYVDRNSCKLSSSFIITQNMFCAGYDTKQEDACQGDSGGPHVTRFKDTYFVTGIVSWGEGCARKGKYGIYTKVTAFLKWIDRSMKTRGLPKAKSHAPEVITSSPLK

In order of rising kcat/KM:
1. B12  1.6e+07 M⁻¹ s⁻¹
2. B1  5.7e+07 M⁻¹ s⁻¹
3. B9  5.8e+07 M⁻¹ s⁻¹
4. B8  7.2e+07 M⁻¹ s⁻¹
5. B13  1.4e+08 M⁻¹ s⁻¹
6. B14  2.1e+08 M⁻¹ s⁻¹
7. B11  2.4e+08 M⁻¹ s⁻¹
8. B10  2.9e+08 M⁻¹ s⁻¹
9. B6  4e+08 M⁻¹ s⁻¹

In order of falling KM:
1. B12  0.109 µM
2. B8  0.0488 µM
3. B7  0.0409 µM
4. B5  0.0177 µM
5. B2  0.0153 µM

In order of falling “% of WT kcat/KM” value:
1. B4  770%
2. B8  155%
3. B3  108%
4. B12  34%
